Laboratory results from PMC11046469, “Leveraging a Phage-Encoded Noncanonical Amino Acid: A Novel Pathway to Potent and Selective Epigenetic Reader Protein Inhibitors” (ACS Central Science, 2024).

target: T1, ENL YEATS domain (AviSUMO-ENL YEATS) (Homo sapiens, UniProt Q03111); assay: Phage panning of BuK-containing 7-mer library against AviSUMO-ENL YEATS with Illumina NGS abundance; details: sheet ENLR3: round 3 of panning against ENL YEATS; TAG = amber codon (BuK); 7-mer library positions V1-V7
T1 construct: encoding ENL YEATS (aa 1−148) was cloned in pET28a-; made in house; host or cells: E. coli BL21(DE3pLysS), co-expressed with BirA (pBirAcm)
T1 sequence (Q03111 1-148): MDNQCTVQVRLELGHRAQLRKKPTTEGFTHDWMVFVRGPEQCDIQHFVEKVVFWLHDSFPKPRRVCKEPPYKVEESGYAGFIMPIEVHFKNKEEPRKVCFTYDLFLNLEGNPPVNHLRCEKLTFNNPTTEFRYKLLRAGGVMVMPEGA
Description: We utilized a previously established amber-obligate 7-mer phage display library to develop a phage display library enriched with BuK-containing 7-mer peptides. For detailed characterizations, including analysis of amber codon percentages, NNK trinucleotide analysis, and amino acid distribution at each position within the library, please refer to the work of Tharp et al.[10] Furthermore, the comprehensive raw NGS data for the amber-obligate 7-mer phage library can be found in the NCBI’s Sequence Read Archive, under the accession ID PRJNA606283. To produce the BuK-containing 7-mer phage library, the phages were produced in the presence of 5 mM BuK using TOP10 cells harboring the following three plasmids: (1) pADL-gIII, which contains the 7-mer amber-obligate peptide-coding DNA library positioned at the N-terminus of M13 pIII gene; (2) pCDF-BuKRS, which encodes BuKRS and its cognate tRNA^Pyl for the genetic incorporation of BuK at amber codons in the 7-mer library; and (3) M13KO7TAA, a helper phage plasmid engineered to have a TAA mutation at pIII so that its lack of a functional pIII allows an efficient multivalent display of the 7-mer library. The ENL YEATS domain containing an N-terminal AviSUMO-Tag was recombinantly expressed in E. coli together with BirA, a biotin ligase, for site-specific biotinylation at the AviTag. The biotinylated AviSUMO-ENL YEATS was immobilized on streptavidin-coated magnetic beads for panning with the BuK-containing phages. […] Phage libraries collected from the first and third rounds of selection were sequenced using Illumina next generation sequencing (NGS) and all sequenced data are available through the NCBI SRA database (Project PRJNA1041845). To prevent possible sequencing errors from affecting conclusions, sequences were filtered using previously published paired-end processing,[10] where any sequences containing more than one mismatch in the nonlibrary region or any mismatch in the library region were discarded. The NGS data provided DNA sequences encompassing both the library and nonlibrary regions. In our analysis, we included data from the nonlibrary region as a stringent quality control measure to filter out low-quality data. For our analysis, we utilized 51 nucleotides from the NGS output, with 21 nucleotides encoding the library region and an additional 30 nucleotides for the nonlibrary region. […] Among all the sequences, only 85 of them contained more than 100 copies (blue area), while the remaining sequences all had low abundances (<10^2 copies, dark and light gray areas), which constituted 85.2% of the first round population. After three panning rounds, the selection converged to two highly enriched sequences: YDVYCYX (ENL-S1) and WWIIEXG (ENL-S2, X denotes BuK). Out of 551 different unique sequences collected from the third round, ENL-S1 and ENL-S2 represented 85% of the entire library (Figure 2A and Figures S6–S8). Both peptide sequences corresponded to their own unique DNA sequence, rather than there being varying codons encoding the same amino acids (Figure S7). […] Two motifs were found in the majority of sequences with high abundance (greater than 0.1%) (Figure S6). A Y(C/L)Y pattern was identified in the residues adjacent to BuK in four of the eight top sequences. Also, an H(L/Y)(T/V)LFXG (X denotes BuK) motif was observed, albeit at lower abundances, in two of the top sequences. In the initial round of selection, we observed that only a small percentage of phages were eluted, which aligns with typical outcomes in phage selection experiments since only a low copy number of phages can bind to the target.[10],[45] With each successive round of selection, we noted a gradual increase in the percentage of phages eluted. This incremental, rather than sharp, increase was attributed to the intensification of selection pressures, such as the application of more stringent washing protocols. We aimed for the incremental increase to retain potent clones with low copy numbers from the previous selection cycle. […]

| Substance | n (number of NGS reads of the unique amino acid sequence) | percent (share of sequence reads) [%] |
| --- | --- | --- |
| ATAGSFHYL | 1 | 0.0009106 |
| CCWTAGGGN | 2 | 0.001821 |
| CFFTAGIMC | 1 | 0.0009106 |
| CHMLCTAGD | 56 | 0.05099 |
| CLPWTAGSS | 7 | 0.006374 |
| CTAGGGSLF | 1 | 0.0009106 |
| CWVCTAGPH | 74 | 0.06739 |
| CYPTAGKCC | 1 | 0.0009106 |
| CYVCRFL | 1 | 0.0009106 |
| DDVYCYTAG | 7 | 0.006374 |
| DLVYCYTAG | 1 | 0.0009106 |
| FDVYCYTAG | 2 | 0.001821 |
| FEISEWTAG | 2 | 0.001821 |
| FLFDTTAGT | 1 | 0.0009106 |
| FLYTAGMPV | 1 | 0.0009106 |
| FTAGIYTAA | 1 | 0.0009106 |
| FTWSTAGED | 1 | 0.0009106 |
| GRAVDTAGG | 1 | 0.0009106 |

| Substance | n (number of NGS reads of the unique amino acid sequence) | percent (share of sequence reads) [%] |
| --- | --- | --- |
| HAIYFYTAG | 1 | 0.0009106 |
| HCVLFTAGG | 1 | 0.0009106 |
| HDVYCYTAG | 13 | 0.01184 |
| HFTLFTAGG | 2 | 0.001821 |
| HIKCTAGII | 1 | 0.0009106 |
| HLNLFTAGG | 2 | 0.001821 |
| HLTFFTAGG | 3 | 0.002732 |
| HLTLFTAGG | 2802 | 2.552 |
| HSWFTAGDG | 1 | 0.0009106 |
| HTAGSFCRL | 1 | 0.0009106 |
| HYVLFTAGG | 612 | 0.5573 |
| HYVLFTAGW | 1 | 0.0009106 |
| HYVLFYG | 1 | 0.0009106 |
| IGSIHYTAG | 1 | 0.0009106 |
| IRCHPWTAG | 1 | 0.0009106 |
| KMPFTAGIS | 1 | 0.0009106 |
| KVTAGGGGV | 1 | 0.0009106 |
| LCGPRTAGD | 1 | 0.0009106 |

The remaining lines, values ahead:

| n (number of NGS reads of the unique amino acid sequence) | percent (share of sequence reads) [%] | Substance |
| --- | --- | --- |
| 10 | 0.009106 | CDVYCYTAG |
| 1 | 0.0009106 | CHNWICTAG |
| 1 | 0.0009106 | CPCWTAGLL |
| 1 | 0.0009106 | CTYVITAGV |
| 1 | 0.0009106 | CWGFEKTAG |
| 22 | 0.02003 | CWIIETAGG |
| 1 | 0.0009106 | CWSTAGNGD |
| 1 | 0.0009106 | CWVCLPH |
| 21 | 0.01912 | CYDLCTAGG |
| 1 | 0.0009106 | CYDLCYG |
| 1 | 0.0009106 | DMFRSTAGI |
| 1 | 0.0009106 | FKCTAGNGC |
| 1 | 0.0009106 | FLTRCML |
| 759 | 0.6912 | HAIYCYTAG |
| 10 | 0.009106 | HCGPRTAGD |
| 1 | 0.0009106 | HHVLFTAGG |
| 2 | 0.001821 | HLTLFTAGC |

| n (number of NGS reads of the unique amino acid sequence) | percent (share of sequence reads) [%] | Substance |
| --- | --- | --- |
| 4 | 0.003642 | HLTLFTAGD |
| 4 | 0.003642 | HLTLFTAGV |
| 3 | 0.002732 | HLTLFYG |
| 1 | 0.0009106 | HMTLFTAGG |
| 1 | 0.0009106 | HPIYCYTAG |
| 1 | 0.0009106 | HSIYCYTAG |
| 2 | 0.001821 | HSTLFTAGG |
| 1 | 0.0009106 | HTRSMTAGN |
| 2 | 0.001821 | HVIYCYTAG |
| 1 | 0.0009106 | HYFLFTAGG |
| 1 | 0.0009106 | IHVYCTAGV |
| 1 | 0.0009106 | ILATAGSVN |
| 4 | 0.003642 | ILIYTAGGD |
| 28 | 0.0255 | IMCYPFTAG |
| 1 | 0.0009106 | IQTAGITAS |
| 9 | 0.008196 | KCGPRTAGD |
| 2 | 0.001821 | LAYCTAGHN |
